Results as given in article PMC12930632, “Free fatty acid receptor 2 allosterism is defined by cellular context” (Cell Communication and Signaling : CCS, 2026).
Where two headings read alike, the source gives them in different places.

Assays:
[1] = biological target: T1, free fatty acid receptor 2 (FFA2R; GPR43), WT (human) (UniProt O15552)
T1 sequence: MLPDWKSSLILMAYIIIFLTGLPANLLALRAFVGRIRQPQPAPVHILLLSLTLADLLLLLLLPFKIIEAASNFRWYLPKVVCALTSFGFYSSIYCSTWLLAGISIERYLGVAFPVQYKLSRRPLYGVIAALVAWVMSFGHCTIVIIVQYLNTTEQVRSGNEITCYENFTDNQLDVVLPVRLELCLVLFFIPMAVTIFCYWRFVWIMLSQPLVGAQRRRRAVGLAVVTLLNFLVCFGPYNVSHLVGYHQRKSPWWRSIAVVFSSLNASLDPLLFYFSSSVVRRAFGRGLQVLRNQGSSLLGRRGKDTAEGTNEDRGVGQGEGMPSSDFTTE

[2] = biological target: T1, free fatty acid receptor 2 (FFA2R; GPR43), WT (human); remark: listed apart in the source
[3] = biological target: T1, free fatty acid receptor 2 (FFA2R; GPR43), WT (human); remark: listed apart in the source
FFA2R (GPR43) = biological target: T2, FFA2R (GPR43) (Homo sapiens, UniProt O15552); experiment: ebBRET effector membrane translocation assay (Rap1GAP-RlucII / rGFP-CAAX), Galpha-i1 activation; assay type: cell-based
T2 construct: gene FFAR2; full-length WT receptor, transiently transfected in HEK293T cells together with a defined Galpha subunit, Rap1GAP-RlucII and rGFP-CAAX; plasmid from cDNA.org
T2 sequence (O15552 1-330): T1 sequence
Description: ebBRET effector membrane translocation assay (Rap1GAP-RlucII / rGFP-CAAX), Galpha-i1 activation on FFA2R (GPR43)

Sequence of β-arrestin2-RlucII (P32121 whole entry): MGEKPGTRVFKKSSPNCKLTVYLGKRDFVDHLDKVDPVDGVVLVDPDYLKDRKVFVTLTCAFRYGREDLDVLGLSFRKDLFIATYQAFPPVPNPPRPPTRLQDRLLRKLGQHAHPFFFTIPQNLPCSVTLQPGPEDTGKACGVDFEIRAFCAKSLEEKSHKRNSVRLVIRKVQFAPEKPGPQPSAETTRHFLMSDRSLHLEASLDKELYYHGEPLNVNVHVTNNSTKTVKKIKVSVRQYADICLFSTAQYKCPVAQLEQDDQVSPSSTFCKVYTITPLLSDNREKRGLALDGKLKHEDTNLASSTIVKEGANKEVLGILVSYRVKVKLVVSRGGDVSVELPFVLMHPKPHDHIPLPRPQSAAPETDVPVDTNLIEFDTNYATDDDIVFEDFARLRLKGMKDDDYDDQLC
Sequence of β-arrestin1-RlucII (P49407 whole entry): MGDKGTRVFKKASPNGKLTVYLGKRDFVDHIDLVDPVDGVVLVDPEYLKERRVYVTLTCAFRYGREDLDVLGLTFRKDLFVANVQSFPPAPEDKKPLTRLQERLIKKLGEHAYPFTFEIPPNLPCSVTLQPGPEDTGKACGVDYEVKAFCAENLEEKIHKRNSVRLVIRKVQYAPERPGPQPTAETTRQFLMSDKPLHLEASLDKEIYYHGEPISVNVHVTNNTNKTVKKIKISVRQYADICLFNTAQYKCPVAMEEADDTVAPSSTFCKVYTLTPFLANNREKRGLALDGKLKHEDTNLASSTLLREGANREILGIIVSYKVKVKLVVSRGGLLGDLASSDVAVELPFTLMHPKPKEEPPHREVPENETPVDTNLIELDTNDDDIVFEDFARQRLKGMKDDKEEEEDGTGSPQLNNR

“Gαz (from UniProt P19086 1-355) (natural protein)” was tested, and the ebBRET (EMTA) max response, Rap1GAP-RlucII + rGFP-CAAX, HEK293T; propionate series up to 1 mM [1] was 0.757 ∆BRET^2.

For “Gαi2 (from UniProt P04899 1-355) (natural protein)”, the ebBRET (EMTA) max response, Rap1GAP-RlucII + rGFP-CAAX, HEK293T; propionate series after AZ1729 (1 µM, 5 min), vehicle and modulator-alone signals subtracted [2] was 0.481 ∆BRET^2, the ebBRET (EMTA) max response, Rap1GAP-RlucII + rGFP-CAAX, HEK293T; propionate series after Cmp58 (1 µM, 5 min), vehicle and modulator-alone signals subtracted [2] was 0.74 ∆BRET^2 and the ebBRET (EMTA) max response, Rap1GAP-RlucII + rGFP-CAAX, HEK293T; propionate series up to 1 mM [1] was 0.865 ∆BRET^2. The ebBRET (EMTA) max response, Rap1GAP-RlucII + rGFP-CAAX, HEK293T; AZ1729 series, alone [3] was 0.664 ∆BRET^2, the ebBRET (EMTA) max response, Rap1GAP-RlucII + rGFP-CAAX, HEK293T; Cmp58 + AZ1729 series, no propionate [3] was 0.59 ∆BRET^2 and the ebBRET (EMTA) max response, Rap1GAP-RlucII + rGFP-CAAX, HEK293T; Cmp58 series, alone [3] was 0.567 ∆BRET^2.

In the case of “Gαi1 (from UniProt P63096 1-354) (natural protein)”, the ebBRET (EMTA) max response, Rap1GAP-RlucII + rGFP-CAAX, HEK293T; propionate series after AZ1729 (1 µM, 5 min), vehicle and modulator-alone signals subtracted [2] is reported as 0.817 ∆BRET^2, the ebBRET (EMTA) max response, Rap1GAP-RlucII + rGFP-CAAX, HEK293T; propionate series after Cmp58 (1 µM, 5 min), vehicle and modulator-alone signals subtracted [2] is reported as 0.841 ∆BRET^2 and the ebBRET (EMTA) max response, Rap1GAP-RlucII + rGFP-CAAX, HEK293T; propionate series up to 1 mM [1] is reported as 0.755 ∆BRET^2. The ebBRET (EMTA) max response, Rap1GAP-RlucII + rGFP-CAAX, HEK293T; AZ1729 series, alone [3] was 0.584 ∆BRET^2, the ebBRET (EMTA) max response, Rap1GAP-RlucII + rGFP-CAAX, HEK293T; Cmp58 + AZ1729 series, no propionate [3] was 0.6 ∆BRET^2 and the ebBRET (EMTA) max response, Rap1GAP-RlucII + rGFP-CAAX, HEK293T; Cmp58 series, alone [3] was 0.525 ∆BRET^2.

For “Gα14 (from UniProt O95837 1-355) (natural protein)”, the ebBRET (EMTA) max response, p63RhoGEF-RlucII + rGFP-CAAX, HEK293T; propionate series up to 1 mM [1] was 0.677 ∆BRET^2, the ebBRET (EMTA) max response, p63RhoGEF-RlucII + rGFP-CAAX, HEK293T; AZ1729 series, alone [3] was 0.614 ∆BRET^2 and the ebBRET (EMTA) max response, p63RhoGEF-RlucII + rGFP-CAAX, HEK293T; Cmp58 series, alone [3] was 0.195 ∆BRET^2.

In the case of “Gα11 (from UniProt P29992 1-359) (natural protein)”, the ebBRET (EMTA) max response, p63RhoGEF-RlucII + rGFP-CAAX, HEK293T; propionate series after AZ1729 (1 µM, 5 min), vehicle and modulator-alone signals subtracted [2] is reported as 1.36 ∆BRET^2, the ebBRET (EMTA) max response, p63RhoGEF-RlucII + rGFP-CAAX, HEK293T; propionate series after Cmp58 (1 µM, 5 min), vehicle and modulator-alone signals subtracted [2] is reported as 1.41 ∆BRET^2 and the ebBRET (EMTA) max response, p63RhoGEF-RlucII + rGFP-CAAX, HEK293T; propionate series up to 1 mM [1] is reported as 1.82 ∆BRET^2. The ebBRET (EMTA) max response, p63RhoGEF-RlucII + rGFP-CAAX, HEK293T; Cmp58 series, alone [3] was 0.33 ∆BRET^2.

`Cc1nc(NC(=N)N)sc1-c1cccc(NC(=O)c2ccc(F)cc2)c1` [AZ1729] showed an EC50 (FFA2R (GPR43); read-out: AZ1729 / EC50) of 41 nM.

With “GαoA (from UniProt P09471 1-354) (natural protein)” the ebBRET (EMTA) max response, Rap1GAP-RlucII + rGFP-CAAX, HEK293T; propionate series up to 1 mM [1] was 0.415 ∆BRET^2, the ebBRET (EMTA) max response, Rap1GAP-RlucII + rGFP-CAAX, HEK293T; AZ1729 series, alone [3] was 0.19 ∆BRET^2 and the ebBRET (EMTA) max response, Rap1GAP-RlucII + rGFP-CAAX, HEK293T; Cmp58 series, alone [3] was 0.237 ∆BRET^2.

With “Gαi3 (from UniProt P08754 1-354) (natural protein)” the ebBRET (EMTA) max response, Rap1GAP-RlucII + rGFP-CAAX, HEK293T; propionate series after AZ1729 (1 µM, 5 min), vehicle and modulator-alone signals subtracted [2] was 0.533 ∆BRET^2, the ebBRET (EMTA) max response, Rap1GAP-RlucII + rGFP-CAAX, HEK293T; propionate series after Cmp58 (1 µM, 5 min), vehicle and modulator-alone signals subtracted [2] was 0.485 ∆BRET^2 and the ebBRET (EMTA) max response, Rap1GAP-RlucII + rGFP-CAAX, HEK293T; propionate series up to 1 mM [1] was 0.859 ∆BRET^2. For the same compound, the ebBRET (EMTA) max response, Rap1GAP-RlucII + rGFP-CAAX, HEK293T; AZ1729 series, alone [3] was 0.553 ∆BRET^2, the ebBRET (EMTA) max response, Rap1GAP-RlucII + rGFP-CAAX, HEK293T; Cmp58 + AZ1729 series, no propionate [3] was 0.485 ∆BRET^2 and the ebBRET (EMTA) max response, Rap1GAP-RlucII + rGFP-CAAX, HEK293T; Cmp58 series, alone [3] was 0.574 ∆BRET^2.

In the case of “Gα13 (from UniProt Q14344 1-377) (natural protein)”, the ebBRET (EMTA) max response, PDZ-RhoGEF-RlucII + rGFP-CAAX, HEK293T; propionate series up to 1 mM [1] is reported as 0.588 ∆BRET^2.

`CC(C)(C)[C@H](C(=O)Nc1ncc(-c2ccccc2)s1)c1ccc(Cl)cc1` [Cmp58, (S)-2-(4-chlorophenyl)-3,3-dimethyl-N-(5-phenylthiazol-2-yl)butanamide] was tested, and the EC50 (FFA2R (GPR43); read-out: Cmp58 / EC50) was 2280 nM.

For “β-arrestin2-RlucII (from UniProt P32121 1-409) (natural protein)”, the ebBRET max response, β-arrestin2-RlucII + rGFP-CAAX (with or without GRK2), HEK293T; propionate series after AZ1729 (1 µM, 5 min), vehicle and modulator-alone signals subtracted [2] was 0.775 ∆BRET^2, the ebBRET max response, β-arrestin2-RlucII + rGFP-CAAX (with or without GRK2), HEK293T; propionate series after Cmp58 (1 µM, 5 min), vehicle and modulator-alone signals subtracted [2] was 0.774 ∆BRET^2 and the ebBRET max response, β-arrestin2-RlucII + rGFP-CAAX (with or without GRK2), HEK293T; propionate series up to 1 mM [1] was 0.799 ∆BRET^2.

“GαoB (from UniProt P09471-2 1-354) (natural protein)” was tested, and the ebBRET (EMTA) max response, Rap1GAP-RlucII + rGFP-CAAX, HEK293T; propionate series after AZ1729 (1 µM, 5 min), vehicle and modulator-alone signals subtracted [2] was 1.62 ∆BRET^2, the ebBRET (EMTA) max response, Rap1GAP-RlucII + rGFP-CAAX, HEK293T; propionate series after Cmp58 (1 µM, 5 min), vehicle and modulator-alone signals subtracted [2] was 1.48 ∆BRET^2 and the ebBRET (EMTA) max response, Rap1GAP-RlucII + rGFP-CAAX, HEK293T; propionate series up to 1 mM [1] was 1.81 ∆BRET^2. The ebBRET (EMTA) max response, Rap1GAP-RlucII + rGFP-CAAX, HEK293T; AZ1729 series, alone [3] was 0.994 ∆BRET^2, the ebBRET (EMTA) max response, Rap1GAP-RlucII + rGFP-CAAX, HEK293T; Cmp58 + AZ1729 series, no propionate [3] was 0.937 ∆BRET^2 and the ebBRET (EMTA) max response, Rap1GAP-RlucII + rGFP-CAAX, HEK293T; Cmp58 series, alone [3] was 0.742 ∆BRET^2.

In the case of “β-arrestin1-RlucII (from UniProt P49407 1-418) (natural protein)”, the ebBRET max response, β-arrestin1-RlucII + rGFP-CAAX (with or without GRK2), HEK293T; propionate series up to 1 mM [1] is reported as 0.23 ∆BRET^2, the ebBRET max response, β-arrestin1-RlucII + rGFP-CAAX (with or without GRK2), HEK293T; AZ1729 series, alone [3] is reported as 0.166 ∆BRET^2 and the ebBRET max response, β-arrestin1-RlucII + rGFP-CAAX (with or without GRK2), HEK293T; Cmp58 series, alone [3] is reported as 0.0827 ∆BRET^2.

With “Gα15 (from UniProt P30679 1-374) (natural protein)” the ebBRET (EMTA) max response, p63RhoGEF-RlucII + rGFP-CAAX, HEK293T; propionate series after AZ1729 (a lower concentration than 1 µM, not given), vehicle and modulator-alone signals subtracted [2] was 0.533 ∆BRET^2, the ebBRET (EMTA) max response, p63RhoGEF-RlucII + rGFP-CAAX, HEK293T; propionate series after Cmp58 (a lower concentration than 1 µM, not given), vehicle and modulator-alone signals subtracted [2] was 0.503 ∆BRET^2 and the ebBRET (EMTA) max response, p63RhoGEF-RlucII + rGFP-CAAX, HEK293T; propionate series up to 1 mM [1] was 0.68 ∆BRET^2. For the same compound, the ebBRET (EMTA) max response, p63RhoGEF-RlucII + rGFP-CAAX, HEK293T; AZ1729 series, alone [3] was 0.74 ∆BRET^2, the ebBRET (EMTA) max response, p63RhoGEF-RlucII + rGFP-CAAX, HEK293T; Cmp58 + AZ1729 series, no propionate [3] was 0.43 ∆BRET^2 and the ebBRET (EMTA) max response, p63RhoGEF-RlucII + rGFP-CAAX, HEK293T; Cmp58 series, alone [3] was 0.588 ∆BRET^2.

In the case of “Gαq (from UniProt P50148 1-359) (natural protein)”, the ebBRET (EMTA) max response, p63RhoGEF-RlucII + rGFP-CAAX, HEK293T; propionate series after AZ1729 (1 µM, 5 min), vehicle and modulator-alone signals subtracted [2] is reported as 1.04 ∆BRET^2, the ebBRET (EMTA) max response, p63RhoGEF-RlucII + rGFP-CAAX, HEK293T; propionate series after Cmp58 (1 µM, 5 min), vehicle and modulator-alone signals subtracted [2] is reported as 1.01 ∆BRET^2 and the ebBRET (EMTA) max response, p63RhoGEF-RlucII + rGFP-CAAX, HEK293T; propionate series up to 1 mM [1] is reported as 1.55 ∆BRET^2. The ebBRET (EMTA) max response, p63RhoGEF-RlucII + rGFP-CAAX, HEK293T; AZ1729 series, alone [3] was 0.337 ∆BRET^2, the ebBRET (EMTA) max response, p63RhoGEF-RlucII + rGFP-CAAX, HEK293T; Cmp58 + AZ1729 series, no propionate [3] was 0.121 ∆BRET^2 and the ebBRET (EMTA) max response, p63RhoGEF-RlucII + rGFP-CAAX, HEK293T; Cmp58 series, alone [3] was 0.132 ∆BRET^2.
